The domain aggregation screens of Martell et al. (2025)

Experiment: soluble fraction after stress (log2 fold change); higher = more stays soluble; pooled small domains, quantitative proteomics
Conditions: stress: pH 4
In short: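 High-throughput quantitative proteomics was run on pooled custom libraries of small protein domains following pH 4 stress. Fold changes are on a log2 scale; higher values mean more of a domain remained soluble. The fold change in soluble amount is taken as a measure of aggregation propensity.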

| Sequence | soluble fraction (log2) |
| --- | --- |
| HMLILDTDGRYVIKRGDSLSEILEKIANGSNINLNLLKRAFVTANPKAFKRANPNWMYANAR | -0.145 |
| HMSFPLKRGSKGNRVTQLQNALVKKFGASILPKYGVDGMFGKEVEAALVRAKLPTSINESTYNSFV | -0.0036 |
| HMAGSTAASKHALALLNTARHSIRDGNLTSAAAEIKQALATSQEQIVITEARSLMTAMEARATTRRATVLQ | -0.179 |
| HMQDTTLTSQILRVPSSVNINDLANVLKSLAGKNTVVAPYKAANTIIITGYAPNVRRVLSLANELIPRLDV | -0.0875 |
| HMSEFVIPLAKYNKALYTQVSLGMRFRMLFETEDSGVRRYMGTITGIGDLDPIRWKNSHWRNLQV | 0.22 |
| HMGNIITQEAAVKLAQDRVPNATLVKIEYDFDDGRPVYEGELREGRWEYEFEIDAATGEFLKWEKD | -0.163 |
| HMATIADILAEHKDKEGPLLPVLHDVQKMFGHVSEEAMREIAQALNLTRAEVYGVVSFYHDFRKEVE | -1.19 |
| HMSGAKLLAPVTGTLLRYTVAEGTKVSEGQTVIMLESMKMELEINAHKAGVIHFTAAAGAQVAEGDSLAEI | -0.419 |
| HMGGREEAGTDIARLLGYINDIHGEELIAKLEYYQKMLGSENFAVLMSRLPDGQKKELREQNLYSEYV | -0.298 |
| HMGSTATVIASRLNMRASASTTGALLTKIPNGATVTVLGTTGAWSHIRYGSYTGYVMSQYLRING | -0.211 |
| HMRPEVTEHLKTADAILHGGDINRQSIVDELRQYAPLYIVRGNNDKDWAEAIPHDLTVTLGGVTFFMVHNR | -0.42 |
| HMKTKTIMSTGAREDLVKMINEYYYSKNYIITEDNRIYNTKTEKFMDDLSVKFYRGRWKVIRN | 0.0289 |
| HMDSIDVQQKKLLTDIELGNIEGIKLFLKRHNNTINFLTIKGFHPLVYAVRNNNMEIVNLFLTT | 0.159 |
| HMRISKRQLILESAAAIINEKGADYLTLDAVAQRAGISKGGLFYHFKSKDELIKELVNYANN | -1.57 |
| HMTPQVTVPDVTGQSFASAKQVLESLGLTVKQQGSTGENDKVIGQNPTSGNADKGATITLTTQDS | -0.154 |
| HMVSDAELTSQATTAITAYPGTSVEVKEGQAHLSGTFATEADKQAAIDALKKIQDVKDVHDMATV | 0.0294 |
| HMTPTRQATVSVAALNVREQPSLQGRRLGKLTQGTTLTVVGPPGEWLKIEYKGETGFVYASYTSLG | -0.0723 |
| HMISKAQLFSEEELTELYRATGYQLENDPEIHREQFEALQAVRAKIEYAVPDVQEKLEQEQNLGQQ | -1 |
| HMDAVKKKVQSTNTLLDVLKQMLPQTSSNTLRKMLTNQRITVDGETIHRAKHTVEKDQTVEIHPKP | ≥ 0.43 |
| HMTKASEELYFRLKEELGTGVIVEHKKYGEGVVTQLDDRLVHIMFQDDTLRMMDLKILANAGLLKVK | -1.87 |
| HMTPADEAGNDLDIGQTVKILRRVSEGQYEVSYRGTTWQARALNAQAAVEPSFAVIGGKEGNILLVHL | -0.115 |
| HMTKLTTDERSVYLHIQNKPGVSASSIREALGYKKSKLTSILAQLLEVHKIIDTEGTGKSLKYIL | 0.091 |
| HMSSPDMSLLYSELDVKDSGQIVTILEQRNIPYEVRNNGSQIYIPSNNVQRIRLSLAQEGLPSG | 0.152 |
| HMDSRQIIAALQARYADETGITALKIKFNNVLGYFVDVPARYGDPLMKPPLSETFIHRQTLASNVRF | -0.0558 |
| HMSLEDMILSLSSRIRRGESLHFRELLVAIETKSGMVTIFMAVLELLKQQVMEMRYEDDDIIFT | -0.567 |
| HMVINVKEILERIKLVKGFHTQIEIARFLGVSKGTISNWLARNSVDFPLVISKLDGVDLNWLFTGIGMPQ | -0.433 |

| Sequence | soluble fraction (log2) |
| --- | --- |
| HMGQVSEAGELEVAADRVIAANPEAVTKYKSGNENILQFLVGQMMKETKGAANPQVAAEILRKKIV | 0.0296 |
| HMVDLLDETLIEFYAFANNLIKDLETNSEKYGGMSQFEKELIFNEQITQYQRKLKIDLQDEVG | -1.39 |
| HMTDLDVAVTMTVALEEAVNGATRRVRLPNGKELNVKIPAGVAAGQQIRLKGQGETAPGHRPGDVLITVNI | -0.626 |
| HMAKLTPDQQELRAIRIELQMSQPDFADAININVPRLSSYEYGRTAGVPTSIMEAARELKRSMSR | -0.324 |
| HMSHDTLVYRLAQMLVKLNQGEKLDPQQLAEEFGVNLRTIQRDLNVRFAYLQLEKTDGRYHLDPTFL | -0.241 |
| HMLQGKVSFFNDEKGYGFIKDNNSKDSYFVHINKVEGEIAEGDKVTFELEKGPKGLVAANVKR | -0.145 |
| HMYTLGEESDGTVRLLELYDIIKNKNEKIFVVDELDRSLHPNLTFNFVKKYLSIENKSQLIVSTH | -1.11 |
| HMQSKDDLLDTFRVVKGNAALLNDQNKKLIRSLKVSSFGFTGITDQAAEVKKEMPDVLLEKASIEDILF | -0.595 |
| HMNRQTGTVKWFNDAKGFGFITPESGPDLFVHFRSIQGAGFKSLQEGQRVTFVAVQGQKGMQADQVQA | -0.429 |
| HMKLIPLTDMRGQLRSGAPLPWGVRDAQGNLLLGKGHVIASDDMLEALLARGMFVDAEEAKAARG | 0.105 |
| HMSNIIGNTAYSAIPDKQYFRLKSETAEKVANYLTENNIPFSGRINGDKTTLTIGQKNVDDYKAAVATVTG | 0.304 |
| HMNPYLWQRVRLLFSNVGVINNSATVDLVFSAPKGVLTEDLANNFSAALVKKGKEELGLDDIKITISVIPN | -2.21 |
| HMEKTLAERVNDILAEIKMTKQELAMQLNISRSAVSQYLNGKYSSNPEAIEARLRDFVSSYDRG | -0.243 |
| HMGIEIKLLMSFMTDSGRKVSLFVTDPREDVTETEIKQVMDLIIEKNIFAPNGEDIVSAKEAKIVQT | -1.2 |
| HMSDMIGQNIRRLRTEKQMTQKALADKLFVTAQAVSRWENGEVEPSLSTVTEIARIFNVSADEILGI | -0.284 |
| HMDTSISHLVGRTGEAVTDLRPAGTVMIDGELYDARATEGFIEKGEIVKAIKYQYGQLNVRRVSK | 0.149 |
| HMLKKGDQVYIISGKDKGKLGVVSQIVSEERILVDGINLAKKHVKPNPNKNETGGVVEKEMPIHASNVMI | -0.702 |
| HMLETIDIFKVTGGEPFLSKDFLEILDLAIEKDLAKNITLMITTNASKFVKKILDKFIHFKRVEFTVS | -1.05 |
| HMPERLTYVHPDGAEPMRADKALAAFLSGRISRSRLLGSFSAGKVMAGGKPVEKKLLLRAGDALEVELPEP | 0.0894 |
| HMKLHFTINGVHYTWYKQFIRGIQIRELGNIPREDELYLDLPDGWKDDFIEDDEIVDLARPGVEHFISRAK | 0.321 |
| HMTQHDIVPLMLKMVDVLTQFVELDIPFLQQERQTRLAALNAMMGRADVSLAEKYRRIMEAYQVETEYG | -0.254 |
| HMSLIDYLNELMNEKNITVAQVAKNSGIGEYVYKIFNGERNAKRDTLVAISFGMHLNFEETQLLLRIA | -0.98 |
| HMQMEISQRIKLERQTLKWTQEELADKIFVSKRTISNWETGRTVPDIESVLRLAKVFHVSLEDLLL | -0.021 |
| HMGDITALMPGKVIQIIVKEGQEIKVGDPLIVIESMKMENTISSEVNGTIKSINIQIDDNVQFDQVLFTV | -1.03 |
| HMPDPHSEARNIVLNQLNFMPRSRKELETALAKRNIEADVAKIVLDRFEEIGMVDDAAYAEL | -1.2 |
| HMTAVVPNFKGKLISELSNFVADKNVRYTIIDSIYDPEEKSGIVIKQDPEEKTQVKHNRIIYLYVTST | -1.11 |

| Sequence | soluble fraction (log2) |
| --- | --- |
| HMTTEPYILTRMPDGSIKAEPNLNYKGPEQKPGSNIQVKGADGRIYLVPIDGQGKPGKPQLVD | 0.127 |
| HMIEQIELEARVPDELGGQRLDQVAAQMFDDFSRSRLTGWIRDGSLTADGQQLRPRDIVYGGTLLQLKAEQ | -0.151 |
| HMPRNEIQRSVLNELVQWIKNNLAKKLTMQALSRFSGYSEWHLFRLFRHYFNMSPMAYIRQQRMQ | -0.359 |
| HMEVVRVEPGATVRDLGEALGVPPTRIIQILMGLGEMKTVTQTLSTEEIELVAEELGRRVEV | -0.248 |
| HMFDFNNLSSLSDVELSVYRFVVNNPEKVAYMRVRDIAQKTHVANSSVMRFVHKIGFASFPEFKAYLKNIN | -0.0916 |
| HMLLPGEELRVMIIQEGKEYGQGVGYLDDGTMVVVEDGQRALNRTENVVVTKVLQTTAGRMIFAK | -0.975 |
| HMSVLLDDLSPREREILQLVVEGHSSTKIAGMLGLASATVDTYRSRLMAKLHIDNLPDLVRFAIRHGLIS | -0.122 |
| HMDAPRFAAGDAVRVAGLVSKPQHNGRAGSVLSYDPVSLRYIVKVDGEDEPLKLKPENVLMPA | 0.0764 |
| HMELQYSQEIEEAQKILENLGLYRGEIDGINGINTKSAIREFQRKSGLVVDGILGPNTTNALSKGSDAYIT | 0.0515 |
| HMIPNEKEAARWDALTAEHTAKLNALEGDALDKVGSHEDVSIKRAGVGDAAFREKILSRTHPDDLERALST | 0.3 |
| HMSNVIYFNYNDYKFLFMGDAGVDKETDILEKYTLSNIDFLKVGHHGSDTSSNKGFIDSIQPKYSLIS | -1.42 |
| HMTKAILTANDVRNGDIVFWTADQRWSTSIDDAAIGYGKDDTDQLADAGKQAEAANTVVGAYLIALR | -1.14 |
| HMVSVEINTVERDETFRKMFTSGWKPENRIQALAVEQAKKNGLGRMSEVAGLASFRGIWKQATEQVALEA | -0.0443 |
| HMITASNYFIEVERIGIETLPETLKKGHDLVVKSTSNGTNWANYQTSEGIKKVIDLYFQKLNEYANTV | -1.57 |
| HMEADERRNEILDAAETLITEKGYSKTTIIDILNQVGIAKGTFYYYFKSKEEVMDAIIERFI | -1.33 |
| HMGQLIGKEEAKQIALSRAGVAEGDISRYESELDTDDGKTKYEISFHVGRVEYDIEINAVTGAVEKFEMDN | 0.0113 |
| HMQVSDEGAIQLLVQKAIEENPQAIEAFRGGKTSALGPVVGWVMKQSKGAANPTMVKTLLEKAI | 0.378 |
| HMGKNYYEILGITKSASEEQVRKAFRGLAMEWHPDRNRSADSEERFKEINEAYQVLIDPKKRQMYDQYGR | 0.349 |
| HMLMLTPGQIAQTLDVSTATVRRWSARYARHLSPNTPGKKRSYTVDDLAVLTRVRDLSATGTPLAQIDQAL | 0.151 |
| HMQKEMDIVLQINGKMRSNLKVSSTANDDEIIKTAIESDAYKKFSLGLRIQKTIIVPNRLINIVLEK | ≥ 0.43 |
| HMESIEGMYKISLLRKQGNAYVIFEDENKEAVEHIFPEKPTALELGTKVIEMFEYKERYDGLI | -0.781 |
| HMGNLEENFRLKAGTEDGAWEFIRYHLGKLPVVNESNGTAIVNAERQAFLLFDRMVAFHIQRGVMVPLSAP | -0.159 |
| HMGELDPKIIAQINTFLQGITKLIEHPGNKDAKKTALGALHKLTFDQNITANFGKQLGQLDQVIQSSEET | -0.127 |
| HMETLEDHRKKTRQQLFDALSHLLQTSTFESLTMAKIAEEAGVGRTAVYNHFQDKEALLLAFITYETGQ | -0.815 |
